Blank lines part the entries; values can stand above or below the binder they belong to.
Assays:
[1] = biological target: T1, Human CD137 ectodomain containing four CRDs (crystallization construct) (human, UniProt Q07011 24-162); experiment: complex purified by gel filtration and crystallized
T1 construct: Expressed with a C-terminal TEV site and Fc tag; the Fc tag was cut off
T1 chain: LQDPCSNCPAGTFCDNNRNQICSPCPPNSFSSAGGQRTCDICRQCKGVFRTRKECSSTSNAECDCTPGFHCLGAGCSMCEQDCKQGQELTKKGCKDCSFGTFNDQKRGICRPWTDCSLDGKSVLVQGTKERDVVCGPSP
Protocol: The complex was then further purified by gel filtration in buffer (20 mM Tris pH 8.0, 100 mM NaCl) using a HiLoad 16/600 Superdex™ 75 pg column (GE Healthcare Life Sciences). […] Crystals cryoprotected with stepwise 5% D-(+)-Sucrose to a final 20% concentration were flash frozen in liquid nitrogen. […] Crystal was cryoprotected with 7% glycerol and flash frozen in liquid nitrogen. The X-ray diffraction data was collected at beamline BL45XU at Spring-8 synchrotron radiation facility (Hyogo, Japan).

human OX40 ECD-His = biological target: T2, human OX40 ECD-His (human, UniProt P43489 29-216); experiment: ELISA, antigens coated at 10 ug/ml; antibody concentration not given
T2 construct: also called human OX40-his; huOX40
T2 sequence: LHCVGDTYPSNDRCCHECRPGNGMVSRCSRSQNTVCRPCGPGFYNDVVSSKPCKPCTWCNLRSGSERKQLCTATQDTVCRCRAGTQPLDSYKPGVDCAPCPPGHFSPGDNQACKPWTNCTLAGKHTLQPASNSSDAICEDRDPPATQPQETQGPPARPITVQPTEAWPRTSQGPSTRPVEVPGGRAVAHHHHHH

human CD40 ECD-mIgG2a = biological target: T3, human CD40 ECD-mIgG2a (human); experiment: as above
T3 construct: also called huCD40; TNFRSF5(CD40)

TNFRSF1A(CD120a) = biological target: T4, TNFRSF1A(CD120a) (UniProt P19438 30-211, limits assumed); experiment: as above
T4 construct: Bought protein
T4 sequence (looked up): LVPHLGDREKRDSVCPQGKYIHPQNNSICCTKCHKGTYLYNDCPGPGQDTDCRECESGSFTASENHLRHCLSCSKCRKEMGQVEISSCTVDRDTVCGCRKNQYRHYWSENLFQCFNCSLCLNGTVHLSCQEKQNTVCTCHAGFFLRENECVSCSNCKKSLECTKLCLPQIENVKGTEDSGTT

TNFRSF1B(CD120b) = biological target: T5, TNFRSF1B(CD120b) (UniProt P20333 23-257); experiment: as above
T5 construct: Bought protein
T5 sequence (looked up): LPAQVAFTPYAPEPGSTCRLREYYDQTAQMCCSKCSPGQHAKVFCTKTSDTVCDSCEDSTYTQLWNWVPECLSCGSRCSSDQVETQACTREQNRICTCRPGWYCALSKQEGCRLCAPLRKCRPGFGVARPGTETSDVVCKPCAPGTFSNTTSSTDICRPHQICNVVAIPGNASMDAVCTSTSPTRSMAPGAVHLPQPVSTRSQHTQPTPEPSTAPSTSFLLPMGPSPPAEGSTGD

human CD137 ECD-mIgG2a = biological target: T6, human CD137 ECD-mIgG2a (human); experiment: competition ELISA on coated human CD137 ECD-mIgG2a: BGA-5623 (IgG4 Fc) detected with anti-human IgG-HRP in the presence of serially diluted human CD137 ligand ECD-mIgG2a
T6 construct: Human CD137 AA 24-183 fused to mouse IgG2a Fc; also called huCD137

T3 sequence (chain, as listed by the source limits assumed): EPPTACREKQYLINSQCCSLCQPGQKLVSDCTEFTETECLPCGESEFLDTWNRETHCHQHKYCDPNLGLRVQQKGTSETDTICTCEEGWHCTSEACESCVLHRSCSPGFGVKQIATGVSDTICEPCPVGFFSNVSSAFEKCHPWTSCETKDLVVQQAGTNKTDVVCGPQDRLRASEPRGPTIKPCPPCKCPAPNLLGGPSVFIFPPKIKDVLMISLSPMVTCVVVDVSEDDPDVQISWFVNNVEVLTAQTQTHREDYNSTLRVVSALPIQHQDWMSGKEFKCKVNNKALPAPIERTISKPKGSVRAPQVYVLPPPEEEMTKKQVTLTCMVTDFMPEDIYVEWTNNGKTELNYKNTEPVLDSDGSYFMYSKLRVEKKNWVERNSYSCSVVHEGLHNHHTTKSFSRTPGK

- binding result [1]: binds
B1: VH (BGA-5623) (VHH)
VHH: EVQLLESGGGLVQPGGSLRLSCAASGFTVSAEDVGWVRQAPGKGLEWVSAILDKGGSTYYAESVKGRFTISRDNAKNTLYLQMSSLRAEDTAVYYCARIVYHAGGGVTFDTRGQGTQVTVSS
notes: Human VH single domain made in E. coli with an N-terminal HIS-MBP tag removed by TEV protease

- binding result (human OX40 ECD-His): no binding
- binding result (human CD40 ECD-mIgG2a): no binding
- binding result (TNFRSF1A(CD120a)): no binding
- binding result (TNFRSF1B(CD120b)): no binding
B2: Urelumab analog (antibody, human IgG4 S228P, kappa, V domains shown)
VH: QVQLQQWGAGLLKPSETLSLTCAVYGGSFSGYYWSWIRQSPEKGLEWIGEINHGGYVTYNPSLESRVTISVDTSKNQFSLKLSSVTAADTAVYYCARDYGPGNYDWYFDLWGRGTLVTVSS
VL: EIVLTQSPATLSLSPGERATLSCRASQSVSSYLAWYQQKPGQAPRLLIYDASNRATGIPARFSGSGSGTDFTLTISSLEPEDFAVYYCQQRSNWPPALTFGGGTKVEIKR
notes: also called Urelumab analog antibody

- IC50 (read off the curve) (human CD137 ECD-mIgG2a): ~2 µg/mL
B3: human CD137 ligand-mIgG2a (Fc fusion)
chain: EPRGPTIKPCPPCKCPAPNLLGGPSVFIFPPKIKDVLMISLSPIVTCVVVDVSEDDPDVQISWFVNNVEVHTAQTQTHREDYNSTLRVVSALPIQHQDWMSGKEFKCKVNNKDLPAPIERTISKPKGSVRAPQVYVLPPPEEEMTKKQVTLTCMVTDFMPEDIYVEWTNNGKTELNYKNTEPVLDSDGSYFMYSKLRVEKKNWVERNSYSCSVVHEGLHNHHTTKSFSRTPGKGGGGSREGPELSPDDPAGLLDLRQGMFAQLVAQNVLLIDGPLSWYSDPGLAGVSLTGGLSYKEDTKELVVAKAGVYYVFFQLELRRVVAGEGSGSVSLALHLQPLRSAAGAAALALTVDLPPASSEARNSAFGFQGRLLHLSAGQRLGVHLHTEARARHAWQLTQGATVLGLFRVTPEIPAGLPSPRSE
notes: also called human CD137 ligand ECD-mIgG2a; huCD137 ligand

— US20240209113A1 (BEIGENE SWITZERLAND, published 2024)
